experiment: yeast display, Sf9 membrane polyspecificity reagent, FACS + sequencing; frameworks hold sequencing errors
Outline: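 Synthetic nanobody libraries on Saccharomyces cerevisiae BJ5465 were galactose-induced for 36–48 hours, stained 1 hour at 4 °C with 10% biotinylated, detergent-solubilized Sf9 membrane reagent and enriched on streptavidin microbeads. FACS then separated cells into low and high (top ~1%) gates by anti-HA (expression) and streptavidin (reagent binding) fluorescence. Genes were colony-PCR amplified, MiSeq 2 × 250 sequenced and CDR-length filtered. A clone's polyreactivity label is that of its gate of origin.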

Row | Sequence | polyreactivity (PSR sort gate)
1 | QVQLVESGGGLVQAGGSLRLSCAASGYTFVYNALGWYRQAPGKEREFVAAITWSGTSTRYADSVKGRFTISRDNAKNTVYIQMTSLQPEDTAVYYCAARRRSAQSGSYNHWGQGTQVTVSS | high polyreactivity
2 | HVQLVESGGGLFQAGGSLRLICAASGSTFGFYAMGWYRQAPGKERELVAAISRRTGSTYYADSVKGRFTISRDNAKNTVYLQMNSLKPEDTAVYYCNTDQSQKTVGYDYWGQGTQVTVSS | high polyreactivity
3 | QVQLVESGGGLDQAGGSLRLSCAASGSIFLDYAMGWYRQAPGKERELVAAISLSSSRTYYADSLKGRFTISRDNAKNTVYLQLNSLKPEDTAVYNCNKLSIWSYYFGPYGYDYWGQGTQVTVSS | low polyreactivity
4 | QVQLLESGGGLVQAGGSLRLTCAASGRIFAYYAMAWYRQAPGKERELVAAITSGGSTYYADSVKGRFTISRDNAKNTVYLQMNILKPEDTAVYYCNAGYGQWSRGHWRLSSVPYYYWGQGTQVTVSS | high polyreactivity
5 | QVQLVESGGGLVQAGGSLRLSCAASGSIFIPNAMGWYRQAPGKERELVAAISLSDTTTYYADSVKGRFTISRDNAKNTVYLQMNSLKPEDTAVYYCAADYWFYPTSPVMDYWGQGTQVTVSS | low polyreactivity
6 | QVQLVESGGGLVQAGGSLRLSCAASGSTFRGYAMGWYRQEPGKEREFVASISLSGGSTYYADSVKGRFTISRDNAKYTVYLQMNSLKPEDSAVYYCAARARGYGWRGDYWRQGTQVTVSS | low polyreactivity
7 | QVQLVESGGGLVQEGGSLRLSCAASGSIFRFYVMGWYRQAPGKERELVAAISIGGSTNYADSVKGRFTISRDNAKNTVYLQMNSRKPEDTAVYYCAADDWYGAGLPHGTEFDYWGQGTQVTVSS | low polyreactivity
8 | QDQRVESGGGLVQAGGSLRLSCAASGSIRGYAMGWYRQAPGKERELVASITWSGGSTYYADSVKGRFTISRDNSKNTVYLQMNSLKPEDPAVFYCAARPSPYASFFRPYDYWGQGTQVTVSS | low polyreactivity
9 | QVQLVESGGGLVQAGGSLRLSCAASGSTFQFYAMGWYRQAPGKEREFVAAITTRSGSTYYADSVKGRFTISRDTAKNTVYLQMNSQKPEDTAVYYCAAYIYGHSSDSVRYEYWGQGTQVTVSS | low polyreactivity
10 | QVQLVESGGGLVQAGGSLRLSCAASGITFGRNTMGWYRQAPGKERELVAAIDSGGNTYADSVKGRFTISRDNEKNTVYLQMNSLKPEDTAVYYCAVDCGEFSSYGYWGQGTQVTVSS | low polyreactivity
11 | QVQLVESGGGLVQAGGSLRLSCAASGRIFGYYALGLSRQAPGKERELVAAINSGSRTYYADSVKGRFTISRDNAKNTVYLQMNSLKPEDTAVYYCAKVGRGNNYWGQGTQVTVSS | high polyreactivity
12 | QVQLVESGGGLVQAGGSLRLSSAASGRTFYWYAMGWYRQAPGKQRELVASISIDGRTYYADSVKGRFTISRDNAKNNVYLQMNSLKPEDTAVYYCNVVRYYPYRPTTKRGGGYWGQGTQVSVSS | high polyreactivity
13 | QVQLVESGGGLVQAGGSLRLSCAASGITFVRNTMGWYRQAPGKERELVAAIDSGGNTNADSVKGRFTISRDNAKNTVYLQMNSLTPEDTAVYYCAVDGGEFSSYGYWGQGTQVTVSW | low polyreactivity
14 | QVQLVESGGGLVQAGGSLRLSCAASGRIFWVYAMGWYRQAPGKERELVAAIDWSDGITYYADSVKGRFTISRDNAKNTVYLQMNSLKPEDTAVYYCAAESVIYQTYNYWGQGTQVTVSS | high polyreactivity
15 | QVQLVESGGGLVQARGSLRLSCAASGSTFSYYTMGWYRQAPGKERELVATISRRGASTYYADSVKGRFTISRDNAKNTVYLQMHSLKPEDTAVYYCAKSYYYGRSATRPEYDYWGQGTQVTVSS | high polyreactivity
16 | QVQLVESGGGLVQAGGSLRLSCAASGSIFGYYAMGWSRQAPGKERELVASISSTGSTYYADSVKGRFTISRDNAKNTVSLQMNSLKPEDTAVYYCAADTLIFPWGFESWGQGTQVTVSS | high polyreactivity

Row | Sequence | polyreactivity (PSR sort gate)
17 | QVQLVESGGGLVQAGGSLRLSCAASGITFYDNDMGWYRQAPGKERELVAGITGTTVGTYYADSVKGRFTISRDYAKNTVYLQMNSLKPEDTAVYYCAATSLAGYYQFDYWGQGTQVTVSS | low polyreactivity
18 | QVQLVESGGGLVQAGGSLRLSCAASGIIFYYYVMGCYRQAPGKERELVAAISRSGGRTRYADSVKGRFTISRDNAKNTVYLQMNSLKPEDTAVYYCAAVGSVNYDADFDYWGQGTQVTVSS | high polyreactivity
19 | QVQLVESGGGLVQAGGSLRLSCAASGRTFYPYAMGWYRQAPGKERELVARISASGGSTYYADSVKGRFTISRDNAKNTVYLQMNSLKPEDTAVYYCARESFWRSLMDYWGQGTQVTVSS | high polyreactivity
20 | QVQLVESGGGLVQAGGSLRLSCAATGFTFRYNAMGWYRQAPGKERELGAAISIGGTTNYADSVKGRFTISRDNAKNTVYLQMNSLKPEDTAVYYCNALGTYFRRYDYWGQGTQVTVSS | low polyreactivity
21 | QVQLVESGGGLVQAGGSLRLSCAASGRIFLTYAMGWYRQAPGKERELVAAISTSGTRTYYADSVKGRFTISRDNAMNTVYLQMNSLKPEDTAVYYCAREKYNYRTYEYWGQGTQVTVSS | high polyreactivity
22 | QVQLVESGGGLVQAGGSLRLSSAASGFTFYRNPMGWYRQAPGKERELVAAITRSGTSTYYADSVKGRFTISRDNAKNSVYLQKNSLKPEDTAVYYCNTVGYRGRSNSRFYYWGQGTQVTVSS | high polyreactivity
23 | QVQLVESGGGLVQAGGSLRLSSAASGIIFGVYGMGWYRPAPGKERELVASIRYSSVRTYYADSVKGRFTISRDNAKNTVYLQMNSLKPEDTAVYYCAKYYVWPSYGYWGQGTQVTVSS | high polyreactivity
24 | QVQLVESGGGLVQAGGSLRLSCAASGRTFWLYAMGWYRQATGKERELVAGISRGGRTYYADSVKGRFTISRDNAKNTVYLQMNSLKPEDTAVYYGAADRYTVRMDCWGQGTQVTVSS | high polyreactivity
25 | QVQLVESGGGLVQAGGSLRLSCAASGLTFSRYAMGWYRQAPGKERELVAAITWSGSSTYYADSVKGRFTISRDNAKNTVYLQMNSLKPEDTAVYYCAARYGYSRGPYYRSDYWGQGTQVTVSS | high polyreactivity
26 | QVQLVESGGCLVQAGGSLRLSCAASRSTFSYNAMGWYRHAPRKERELVASSSTSGGSTYYADSVKGRFSISRDNAKNTVYLQINSLTPEDTAVYYCNAPTSDIYSDFDYWGQGTQVTVSS | low polyreactivity
27 | QVQLVESGGGLVQAGGSLRLSCAASGRIFDYNDMGWYRQAPGTERELVAGISSGGSTYYADSVKGRFTISRDNAKNTVYLQMNSLKPEDTAVYYCAAGGRPYRGYGYWGQGTQVTVSS | high polyreactivity
28 | QVQLVESGGGLDQAGGSLRLSCVASGFTFRVYAMGWYRQAPGKERELVAAISRVGSTNYADSVKGRFTISRDNAKNTVYLQMNSLKPEDTAVYYCNAVLRHTWVSRGYGSWGQGTQVTVSS | high polyreactivity
29 | QVQLVESGGGLVQAGGSLRLSCAASGRTFHIYAMGWYRQAPGKERELVAAIRGRSGSTYYADSVKGRFTISRDNAKNTVYLQMNSLKPEDTAVYYCAAEYWGRYGAPEYDYWGQGTQVTVSS | high polyreactivity
30 | QVQLVESGGGLVQAGGSLRLSCAASGRIFAQNAMGWYRQAPRNERELVAGISYGGGRTYYADSVKGRFTISRDKAKNTVYLQMNSLKPEDTAVYYCAKAVNSPRKYQLGNGYWGQGTQVTVSS | high polyreactivity
31 | QVQLVESGGGLVQAGGSLRLSCAASGFIFYSYAMGWYRQAPGKERELVAAISWSGGRTYYADSVKGRFTISRDNAKNTVYLQMNSLKPEDTAVYYCNADDYSFSFTVPYYIEYDYWGQGTQVTVSS | high polyreactivity
